Reference: PMC6153294 (The Journal of Biological Chemistry, 2018)

Target: T1, recombinant FGFR1c extracellular domain protein (Homo sapiens, UniProt P11362)
T1 construct: FGF receptor 1, 'c' splice isoform, human, extracellular domain; also called human FGFR1c
Assay: SPR; kinetic-binding assay on Biacore T200: His-tagged human β-Klotho and FGFR1c captured (about 40 RU and 60 RU) on immobilised mouse anti-His antibody (CM5); 39F7 (100 nM) and FGF21 (500 nM) injected in PBS, 0.1 mg/ml BSA, 0.005% Surfactant P20
Details: both partners purified

T1 sequence (P11362 22-376): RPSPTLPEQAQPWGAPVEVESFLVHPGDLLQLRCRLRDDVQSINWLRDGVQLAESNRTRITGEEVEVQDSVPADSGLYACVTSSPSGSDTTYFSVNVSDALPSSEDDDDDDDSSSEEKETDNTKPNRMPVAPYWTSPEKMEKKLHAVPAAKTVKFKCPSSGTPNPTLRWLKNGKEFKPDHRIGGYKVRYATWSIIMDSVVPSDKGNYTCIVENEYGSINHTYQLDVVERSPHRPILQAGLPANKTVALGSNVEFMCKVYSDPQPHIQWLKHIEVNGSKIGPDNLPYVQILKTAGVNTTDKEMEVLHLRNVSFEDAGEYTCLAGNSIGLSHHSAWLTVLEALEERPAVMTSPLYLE

B1: 39F7 agonistic monoclonal antibody against β-Klotho (full IgG) (antibody, V domains shown)
VH: QVQLVESGGGVVQPGRSLRLSCAASGFTFSNYGIHWVRQAPGKGLEWVAVIWYDGSIKYYADSVKGRFTISRDNSKNTLYLQMNSLRAEDTAVYYCARDRAAAGLHYYYGMDVWGQGTTVTVSS
VL: not shown
notes: Identified from an immunisation campaign in XenoMouse with a complex of β-Klotho and FGFR1c; also called mAb 39F7; 39F7 IgG; copies: 2 + 2
binding result: no binding (tested: 100 nM)
